Results as given in patent publication US20070154901A1 (ANAPHORE, published 2007).
Values belong to the binder of their own block, whether it stands above or below them.

B1: recombinant full length tetranectin (TN123) (other)
chain: GEPPTQKPKKIVNAKKDVVNTKMFEELKSRLDTLAQEVALLKEQQALQTVCLKGTKVHMKCFLAFTQTKTFHEASEDCISRGGTLSTPQTGSENDALYEYLRQSVGNEAEIWLGLNDMAAEGTWVDMTGARIAYKNWETEITAQPDGGKTENCAVLSGAANGKWFDKRCRDQLPYICQFGIV
notes: Found as a trimer in solution; also called rTN123

Tests used:
[1] = target: the molecule itself; test: analytical gel filtration on Superose 12; self-association
Protocol: (§1) FIG. 9: Gel filtration analysis of TN123, TN23, and TN3 Analytical gel filtration of the recombinant tetranectin derivatives TN123, TN23, and TN3 were performed on a Superose 12 HR 10/30 column (Pharmacia, Sweden) with a total volume of 25 ml in 100 mM NaCl and 50 mM Tris-HCl pH 8 and a flow rate of 0.2 ml/min. Vertical bars at peak maxima identify elution profiles for each of the three proteins.
(§2) Analytical gelfiltration of the recombinant tetranectin derivatives TN123, TN3, and TN23 (FIG. 9) were performed on a Superose 12 HR 10/30 column (Pharmacia, Sweden) with a total volume of 25 ml in 100 mM NaCl and 50 mM Tris-HCl pH 8 and a flow rate of 0.2 ml/min. The Kₐᵥ value is defined by, Kₐᵥ=(Ve−Vo)/(Vc−Vo).

[2] = target: the molecule itself; test: DMSI cross-linking with rising DMSI at room temperature, SDS-PAGE; self-association
Protocol: After completion of the refolding procedure each column was washed with 300 ml buffer containing 0.5 M NaCl and 50 mM Tris-HCl pH 8 to wash away glutathione. The refolded fraction of each protein was then eluted from the NTA-agarose matrix by addition of 20 mM EDTA to the elution buffer. After addition of solid urea to achieve a final concentration of about 8 M to each protein sample and dilution or dialysis to reduce NaCl concentrations to below 5 mM, final purification of each correctly folded fusion protein product was then accomplished by ion exchange chromatography (S-Sepharose, Pharmacia, 1,6 (i.d.) by 90 centimeter column in a buffer containing 8 M urea, 5 mM Tris-HCl (from 1 M stock solution at pH 8) and 25 mM sodium acetate (from 1 M stock solution at pH 5), eluted at 2 ml/min). After dialysis against aqueous buffers (e.g. phosphate buffered saline) each pure and correctly refolded fusion protein was recovered in yields of 2-6 mg per litre of culture grown. […] Reactions were quenched by addition of 5 μl 3M Tris-HCl pH 9 and the samples analyzed by SDS-PAGE under reducing conditions (FIG. 21). Like tetranectin, the H6FXtripb-scFV-(CEA6) fusion protein, of approximately 38 kDa, is hereby shown to be a trimer in solution.

[3] = target: B1; test: DMSI cross-linking and SDS-PAGE after subunit exchange at 70 C for 15 s or longer; no exchange after 16 h at room temperature
Protocol: FIG. 10: Cross-linking analysis of TN123 and CIIH6FXTN123. Samples of TN123, CIIH6FXTN123 and mixtures of both were incubated with DMSI and analyzed by SDS-PAGE (12% gel). Before addition of DMSI, protein mixtures were subjected to subunit exchange by incubation at 70° C. for varying length of time. Protein marker of 94, 68, 43 and 30 kDa, top to bottom (lane M). CIIH6FXTN123 fusion protein (lane 1). TN123 (lane 2). DMSI treated CIIH6FXTN123 (lanes 3 and 6). DMSI-treated TN123 (lane 4). Identical samples of DMSI treated mixtures of CIIH6FXTN123 and TN123 without heat exposure (lanes 5 and 7) and heat treated for 2.5 sec, 15 sec, 2.5 min. and 10 min., respectively, before treatment with DMSI (lanes 8-11).
The recombinant tetranectin derivatives TN123, TN3, and TN23, together with the fusion proteins CIIH6FXTN123 and H6FXTN12 or mixtures of these derivatives at 1 mg/ml concentrations in cross-linking buffer (0.1 M Sodium borate, pH 9.1) were incubated with dimethylsuberimidate (DMSI, Sigma). 10 μl aliquots of protein solution were incubated with 1 μl aliquots of DMSI stock solution (20 mg/ml in cross-linking buffer) for 30 minutes at 25° C. before addition of 2 μl quenching buffer (3 M Tris-HCl, pH 9). Subunit exchange between preformed homo-oligomers was induced by subjecting protein mixtures to heat shock treatment. […]

[4] = target: the molecule itself; test: DMSI cross-linking and SDS-PAGE; self-association
Protocol: (§3) The recombinant tetranectin derivatives TN123, TN3, and TN23, together with the fusion proteins CIIH6FXTN123 and H6FXTN12 or mixtures of these derivatives at 1 mg/ml concentrations in cross-linking buffer (0.1 M Sodium borate, pH 9.1) were incubated with dimethylsuberimidate (DMSI, Sigma). 10 μl aliquots of protein solution were incubated with 1 μl aliquots of DMSI stock solution (20 mg/ml in cross-linking buffer) for 30 minutes at 25° C. before addition of 2 μl quenching buffer (3 M Tris-HCl, pH 9). Subunit exchange between preformed homo-oligomers was induced by subjecting protein mixtures to heat shock treatment. Five μl aliquots of each protein solution (1 mg/ml stocks) were mixed at 0° C. in standard polypropylene microcentrifuge tubes, transferred to a water bath at 70° C. for the time spans indicated, and then further incubated for 15 minutes at 25° C. before reaction with DMSI.
Subunit exchange could be induced by incubating the protein mixture at 70° C. for 15 seconds or longer before cooling to room temperature and addition of DMSI. […] It should be noted, that molecular weight markers have only been included on the SDS-PAGE gels for crude calibration and orientation of the gels.

[5] = target: B1; test: DMSI cross-linking and SDS-PAGE after heat treatment at 70 C
Protocol: as §3

[6] = target: the molecule itself; test: analytical gel filtration on Superose 12
Protocol: as §1, §2

[7] = target: B1; test: DMSI cross-linking of the mixture with and without heat treatment at 70 C, SDS-PAGE
Protocol: as §3

Binder: B1
- binding result [1]: binds

B2: recombinant tetranectin derivative TN23 (other)
chain: VVNTKMFEELKSRLDTLAQEVALLKEQQALQTVCLKGTKVHMKCFLAFTQTKTFHEASEDCISRGGTLSTPQTGSENDALYEYLRQSVGNEAEIWLGLNDMAAEGTWVDMTGARIAYKNWETEITAQPDGGKTENCAVLSGAANGKWFDKRCRDQLPYICQFGIV
notes: It is a trimer by gel filtration but appeared monomeric after DMSI cross-linking
- binding result [1]: binds

B3: fusion protein H6FXtripb-scFv(CEA6) (scFv)
chain: MGSHHHHHHGSIQGRSPGTEPPTQKPKKIVNAKKDVVNTKMFEELKSRLDTLAQEVALLKEQQALQTGSQVQLQQSGAEVKKPGSSVKVSCKASGGTFSNSPINWLRQAPGQGLEWMGSIIPSFGTANYAQKFQGRLTITADESTSTAYMELSSLRSEDTAVYYCAGRSHNYELYYYYMDVWGQGTMVTVSSGGGGSGGGGSGGGGSDIQMTQSPSTLSASIGDRVTITCRASEGIYHWLAWYQQKPGKAPKLLIYKASSLASGAPSRFSGSGSGTDFTLTISSLQPDDFATYYCQQYSNYPLTFGGGTKLEIKRAAAEQKLISEEDLNGA
notes: About 38 kDa per monomer; Only its self-association was tested
- binding result [2]: binds

- binding result [3]: binds
B4: tetranectin fusion protein CIIH6FXTN123 (other)
chain: MVRANKRNEALRIESALLNKIAMLGTEKTAEGGSHHHHHHGSIEGRGEPPTQKPKKIVNAKKDVVNTKMFEELKSRLDTLAQEVALLKEQQALQTVCLKGTKVHMKCFLAFTQTKTFHEASEDCISRGGTLSTPQTGSENDALYEYLRQSVGNEAEIWLGLNDMAAEGTWVDMTGARIAYKNWETEITAQPDGGKTENCAVLSGAANGKWFDKRCRDQLPYICQFGIV
notes: Uncleaved fusion protein; Forms homo-trimers, and forms hetero-trimers with TN123; also called H6CIIFXTN123
- binding result [4]: binds

- binding result [5]: binds
B5: fusion protein H6FXTN12 (other)
chain: MGSHHHHHHGSIEGRGEPPTQKPKKIVNAKKDVVNTKMFEELKSRLDTLAQEVALLKEQQALQTV
notes: Uncleaved fusion protein; Formed homo-trimers upon cross-linking; also called H6-rTN12
- binding result [4]: binds

- binding result [7]: no binding
B6: recombinant tetranectin derivative TN3 (other)
chain: ALQTVCLKGTKVHMKCFLAFTQTKTFHEASEDCISRGGTLSTPQTGSENDALYEYLRQSVGNEAEIWLGLNDMAAEGTWVDMTGARIAYKNWETEITAQPDGGKTENCAVLSGAANGKWFDKRCRDQLPYICQFGIV
notes: Appeared monomeric
- binding result [6]: no binding
